Biological target: T1, botulinum toxoid B, P10844
T1 chain: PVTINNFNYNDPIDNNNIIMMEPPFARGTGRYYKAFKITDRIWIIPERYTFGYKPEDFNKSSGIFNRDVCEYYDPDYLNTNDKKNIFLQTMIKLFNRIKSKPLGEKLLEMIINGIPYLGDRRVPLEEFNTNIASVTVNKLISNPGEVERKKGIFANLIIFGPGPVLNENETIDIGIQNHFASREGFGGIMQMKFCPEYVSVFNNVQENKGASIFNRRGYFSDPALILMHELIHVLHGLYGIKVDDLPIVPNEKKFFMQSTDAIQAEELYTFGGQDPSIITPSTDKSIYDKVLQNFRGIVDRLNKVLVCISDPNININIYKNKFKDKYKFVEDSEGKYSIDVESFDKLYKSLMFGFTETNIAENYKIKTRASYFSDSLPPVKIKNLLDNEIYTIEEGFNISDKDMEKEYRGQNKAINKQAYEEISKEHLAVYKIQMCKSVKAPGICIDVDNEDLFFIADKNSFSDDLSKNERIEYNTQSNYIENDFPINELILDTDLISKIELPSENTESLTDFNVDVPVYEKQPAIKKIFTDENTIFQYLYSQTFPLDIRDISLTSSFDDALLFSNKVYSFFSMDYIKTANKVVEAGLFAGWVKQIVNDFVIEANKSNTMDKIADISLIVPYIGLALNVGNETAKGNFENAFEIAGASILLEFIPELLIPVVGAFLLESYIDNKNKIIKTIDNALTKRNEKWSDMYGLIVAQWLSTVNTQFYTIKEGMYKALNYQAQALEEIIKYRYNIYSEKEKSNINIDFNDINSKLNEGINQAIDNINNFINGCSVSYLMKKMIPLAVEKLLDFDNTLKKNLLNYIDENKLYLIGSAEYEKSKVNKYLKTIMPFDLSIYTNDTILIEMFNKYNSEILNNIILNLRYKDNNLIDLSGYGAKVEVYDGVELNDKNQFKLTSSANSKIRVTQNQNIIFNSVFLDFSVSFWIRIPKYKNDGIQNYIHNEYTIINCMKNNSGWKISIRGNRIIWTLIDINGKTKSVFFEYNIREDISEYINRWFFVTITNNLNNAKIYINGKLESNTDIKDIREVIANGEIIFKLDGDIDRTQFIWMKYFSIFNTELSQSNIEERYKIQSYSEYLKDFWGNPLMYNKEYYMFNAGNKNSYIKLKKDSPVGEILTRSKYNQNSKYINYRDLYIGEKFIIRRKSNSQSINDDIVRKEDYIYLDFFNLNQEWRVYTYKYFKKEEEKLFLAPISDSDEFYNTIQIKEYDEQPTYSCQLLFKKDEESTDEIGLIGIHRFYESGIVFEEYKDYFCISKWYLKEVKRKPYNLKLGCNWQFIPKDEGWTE

With GIGAVLKVLTTGLPALISWIKRKRQQ (modifications not checked) [Melittin] the limit of detection was < 5 ng/mL.

— patent US8658372
